In publication PMC4803301:

B1: R-spondin1 (Rspo1): 2WA (protein)
parent chain: MRLGLCVVALVLSWTHLTISSRGIKGKRQRRISAEGSQACAKGCELCSEVNGCLKCSPKLFILLERNDIRQVGVCLPSCPPGYFDARNPDMNKCIKCKIEHCEACFSHNFCTKCKEGLYLHKGRCYPACPEGSSAANGTMECSSPAQCEMSEWSPWGPCSKKQQLCGFRRGSEERTRRVLHAPVGDHAACSDTKETRRCTVRRVPCPEGQKRRKGGQGRRENANRNLARKESKEAGAGSRRRKGQQQQQQQGTVGPLTSAGPA
B2: R-spondin1 (Rspo1): siDPY19L3#2 (protein)
parent chain: B1 parent chain
B3: R-spondin1 (Rspo1): siDPY19L3 (protein)
parent chain: B1 parent chain

How the values were obtained:
[1] = anti-myc blot of conditioned medium and lysate, HT1080; conditions: glycan lost; control: wild type
[2] = time course of secreted Rspo1, anti-myc blot; conditions: glycan lost; control: wild type
[3] = anti-myc blot of conditioned medium and lysate, HT1080-Rspo1-MH; conditions: glycan lost; control: siCtrl

Protein	expression_or_secretion [1]	expression_or_secretion [2]	expression_or_secretion [3]
B1	decreases	decreases	
B2			decreases
B3			decreases
